# Results as given in US20190352359A1 (IMMATICS BIOTECHNOLOGIES, published 2019).
# Columns and labels:
# HLA-A*24 [1] = biological target: T1, HLA-A*24; assay: UV peptide-exchange ELISA (anti-b2m); yield grade ++ = >20%
# T1 construct: Monomers captured on streptavidin plates; also called peptide-receptive MHC molecules; MHC complexes
# Description: (§1) Candidate peptides for T cell based therapies according to the present invention were further tested for their MHC binding capacity (affinity). The individual peptide-MHC complexes were produced by UV-ligand exchange, where a UV-sensitive peptide is cleaved upon UV-irradiation, and exchanged with the peptide of interest as analyzed. Only peptide candidates that can effectively bind and stabilize the peptide-receptive MHC molecules prevent dissociation of the MHC complexes. To determine the yield of the exchange reaction, an ELISA was performed based on the detection of the light chain (p2m) of stabilized MHC complexes. The assay was performed as generally described in Rodenko et al. (Rodenko et al., 2006)
# (§2) 96 well MAXISorp plates (NUNC) were coated over night with 2 ug/ml streptavidin in PBS at room temperature, washed 4× and blocked for 1 h at 37° C. in 2% BSA containing blocking buffer. Refolded HLA-A*02:01/MLA-001 monomers served as standards, covering the range of 15-500 ng/ml. Peptide-MHC monomers of the UV-exchange reaction were diluted 100-fold in blocking buffer. Samples were incubated for 1 h at 37° C., washed four times, incubated with 2 ug/ml HRP conjugated anti-β2m for 1h at 37° C., washed again and detected with TMB solution that is stopped with […]. Absorption was measured at 450 nm. Candidate peptides that show a high exchange yield (preferably higher than 50%, most preferred higher than 75%) are generally preferred for a generation and production of antibodies or fragments thereof, and/or T cell receptors or fragments thereof, as they show sufficient avidity to the MHC molecules and prevent dissociation of the MHC complexes.
# HLA-A*24 [2] = biological target: T1, HLA-A*24; assay: UV peptide-exchange ELISA (anti-b2m); yield grade ++++ = >75%
# Description: as §1, §2
binder,measurement,setting,value
RRYFGEKVAL (also called RRYFGEKVAL) [ANO7-005],peptide exchange yield,HLA-A*24 [1],20 to 50%
TYVPSTFLV (also called TYVPSTFLV) [GABRP-005],peptide exchange yield,HLA-A*24 [2],> 75%
RYLPNPSLNAF (also called RYLPNPSLNAF) [CYP1A1-002],peptide exchange yield,HLA-A*24 [2],> 75%
KWFDSHIPRW (also called KWFDSHIPRW) [ERV-002],peptide exchange yield,HLA-A*24 [2],> 75%
LQPPWTTVF (also called LQPPWTTVF) [FCRL5-006],peptide exchange yield,HLA-A*24 [1],20 to 50%
VYPSESTVM (also called VYPSESTVM) [PTP-045],peptide exchange yield,HLA-A*24 [1],20 to 50%
IGLSVVHRF (also called IGLSVVHRF) [OR51E2-003],peptide exchange yield,HLA-A*24 [2],> 75%
SYLENSASW (also called SYLENSASW) [DLX5-003],peptide exchange yield,HLA-A*24 [2],> 75%
ILQAPLSVF (also called ILQAPLSVF) [FCRL5-005],peptide exchange yield,HLA-A*24 [1],20 to 50%
LYIDKGQYL (also called LYIDKGQYL) [HMCN1-011],peptide exchange yield,HLA-A*24 [2],> 75%
RYSPVKDAW (also called RYSPVKDAW) [KLHDC7B-006],peptide exchange yield,HLA-A*24 [2],> 75%
EYNVFPRTL (also called EYNVFPRTL) [MMP13-004],peptide exchange yield,HLA-A*24 [1],20 to 50%
TYVPSTFLVVL (also called TYVPSTFLVVL) [GABRP-006],peptide exchange yield,HLA-A*24 [2],> 75%
IFQHFCEEI (also called IFQHFCEEI) [SMC1B-002],peptide exchange yield,HLA-A*24 [1],20 to 50%
MHRTWRETF (also called MHRTWRETF) [ANO7-004],peptide exchange yield,HLA-A*24 [1],20 to 50%
MFQFEHIKW (also called MFQFEHIKW) [FBXW10-001],peptide exchange yield,HLA-A*24 [1],20 to 50%
YFCSTKGQLF (also called YFCSTKGQLF) [FCRL2-004],peptide exchange yield,HLA-A*24 [2],> 75%
LYMRFVNTHF (also called LYMRFVNTHF) [SPINK2-002],peptide exchange yield,HLA-A*24 [1],20 to 50%
VFPLVTPLL (also called VFPLVTPLL) [PTP-042],peptide exchange yield,HLA-A*24 [2],> 75%
SLPGSFIYVF (also called SLPGSFIYVF) [HMCN1-012],peptide exchange yield,HLA-A*24 [1],20 to 50%
KYKPVALQCIA (also called KYKPVALQCIA) [HMCN1-009],peptide exchange yield,HLA-A*24 [1],20 to 50%
SIYPHGVTF (also called SIYPHGVTF) [F5-007],peptide exchange yield,HLA-A*24 [1],20 to 50%
AQGSGTVTF (also called AQGSGTVTF) [FCRL3-004],peptide exchange yield,HLA-A*24 [1],20 to 50%
FYKLIQNGF (also called FYKLIQNGF) [FLT3-010],peptide exchange yield,HLA-A*24 [2],> 75%
IYKDYYRYNF (also called IYKDYYRYNF) [PLA2G2D-001],peptide exchange yield,HLA-A*24 [2],> 75%
VWSCEGCKAF (also called VWSCEGCKAF) [ESR-001],peptide exchange yield,HLA-A*24 [1],20 to 50%
YTIERYFTL (also called YTIERYFTL) [GABRP-007],peptide exchange yield,HLA-A*24 [2],> 75%
RYTGQWSEW (also called RYTGQWSEW) [IL9R-001],peptide exchange yield,HLA-A*24 [2],> 75%
VYIVPVIVL (also called VYIVPVIVL) [OXTR-002],peptide exchange yield,HLA-A*24 [2],> 75%
SYLPTAERL (also called SYLPTAERL) [SYT12-001],peptide exchange yield,HLA-A*24 [2],> 75%
VYVRPRVF (also called VYVRPRVF) [HMCN1-013],peptide exchange yield,HLA-A*24 [1],20 to 50%
IYIYPFAHW (also called IYIYPFAHW) [NPFFR2-002],peptide exchange yield,HLA-A*24 [2],> 75%
VGRSPVFLF (also called VGRSPVFLF) [COL11A1-006],peptide exchange yield,HLA-A*24 [1],20 to 50%
TYINSLAIL (also called TYINSLAIL) [TGM4-003],peptide exchange yield,HLA-A*24 [2],> 75%
YLKSVQLF (also called YLKSVQLF) [RFX8-001],peptide exchange yield,HLA-A*24 [1],20 to 50%
DYSKQALSL (also called DYSKQALSL) [LAMC2-018],peptide exchange yield,HLA-A*24 [1],20 to 50%
YIANLISCF (also called YIANLISCF) [GLYATL3-001],peptide exchange yield,HLA-A*24 [1],20 to 50%
VYAVSSDRF (also called VYAVSSDRF) [DCX-001],peptide exchange yield,HLA-A*24 [2],> 75%
TYSKTIALYGF (also called TYSKTIALYGF) [BTBD16-004],peptide exchange yield,HLA-A*24 [2],> 75%
SYFEYRRLL (also called SYFEYRRLL) [LAMC2-019],peptide exchange yield,HLA-A*24 [1],20 to 50%
NYVLVPTMF (also called NYVLVPTMF) [CAPN6-003],peptide exchange yield,HLA-A*24 [2],> 75%
FMVIAGMPLF (also called FMVIAGMPLF) [SLC6A3-001],peptide exchange yield,HLA-A*24 [1],20 to 50%
VYKEDLPQL (also called VYKEDLPQL) [EML-002],peptide exchange yield,HLA-A*24 [2],> 75%
NYTRLVLQF (also called NYTRLVLQF) [GABRP-004],peptide exchange yield,HLA-A*24 [2],> 75%
ELMAHPFLL (also called ELMAHPFLL) [CYP4Z-002],peptide exchange yield,HLA-A*24 [1],20 to 50%
VFQPNPLF (also called VFQPNPLF) [WISP3-002],peptide exchange yield,HLA-A*24 [1],20 to 50%
LYAFLGSHF (also called LYAFLGSHF) [KISS1R-003],peptide exchange yield,HLA-A*24 [2],> 75%
KWFNVRMGFGF (also called KWFNVRMGFGF) [LIN-001],peptide exchange yield,HLA-A*24 [1],20 to 50%
RYFDENIQKF (also called RYFDENIQKF) [HEPHL-004],peptide exchange yield,HLA-A*24 [2],> 75%
AYLKLLPMF (also called AYLKLLPMF) [SLC5A4-001],peptide exchange yield,HLA-A*24 [2],> 75%
ALFAVCWAPF (also called ALFAVCWAPF) [QRFPR-002],peptide exchange yield,HLA-A*24 [1],20 to 50%
IYYSHENLI (also called IYYSHENLI) [F5-005],peptide exchange yield,HLA-A*24 [2],> 75%
VYDTMIEKFA (also called VYDTMIEKFA) [PTP-044],peptide exchange yield,HLA-A*24 [1],20 to 50%
LYGFFFKI (also called LYGFFFKI) [BTBD16-002],peptide exchange yield,HLA-A*24 [2],> 75%
TYGEEMPEEI (also called TYGEEMPEEI) [DNAH17-004],peptide exchange yield,HLA-A*24 [1],20 to 50%
SWHKATFLF (also called SWHKATFLF) [COL24-002],peptide exchange yield,HLA-A*24 [2],> 75%
RPEKVFVF (also called RPEKVFVF) [COL11A1-005],peptide exchange yield,HLA-A*24 [1],20 to 50%
SYATPVDLW (also called SYATPVDLW) [CDK6-007],peptide exchange yield,HLA-A*24 [2],> 75%
KYLSIPTVFF (also called KYLSIPTVFF) [UGT1A3-002],peptide exchange yield,HLA-A*24 [2],> 75%
VLQGEFFLF (also called VLQGEFFLF) [KBTBD8-005],peptide exchange yield,HLA-A*24 [2],> 75%
FLPRAYYRW (also called FLPRAYYRW) [ANO7-001],peptide exchange yield,HLA-A*24 [1],20 to 50%
RRVTWNVLF (also called RRVTWNVLF) [BTBD17-003],peptide exchange yield,HLA-A*24 [1],20 to 50%
IMQGFIRAF (also called IMQGFIRAF) [PAE-002],peptide exchange yield,HLA-A*24 [1],20 to 50%
RWLDGSPVTL (also called RWLDGSPVTL) [CLEC17-005],peptide exchange yield,HLA-A*24 [2],> 75%
MLPQIPFLLL (also called MLPQIPFLLL) [COL10-001],peptide exchange yield,HLA-A*24 [1],20 to 50%
IRPDYSFQF (also called IRPDYSFQF) [TRDV3-001],peptide exchange yield,HLA-A*24 [1],20 to 50%
